Blank lines part the entries; values can stand above or below the binder they belong to. Non-standard residues stand in square brackets, D forms with d.
Target: T1, platelet-derived growth factor β-receptor (PDGFR-β)
T1 chain: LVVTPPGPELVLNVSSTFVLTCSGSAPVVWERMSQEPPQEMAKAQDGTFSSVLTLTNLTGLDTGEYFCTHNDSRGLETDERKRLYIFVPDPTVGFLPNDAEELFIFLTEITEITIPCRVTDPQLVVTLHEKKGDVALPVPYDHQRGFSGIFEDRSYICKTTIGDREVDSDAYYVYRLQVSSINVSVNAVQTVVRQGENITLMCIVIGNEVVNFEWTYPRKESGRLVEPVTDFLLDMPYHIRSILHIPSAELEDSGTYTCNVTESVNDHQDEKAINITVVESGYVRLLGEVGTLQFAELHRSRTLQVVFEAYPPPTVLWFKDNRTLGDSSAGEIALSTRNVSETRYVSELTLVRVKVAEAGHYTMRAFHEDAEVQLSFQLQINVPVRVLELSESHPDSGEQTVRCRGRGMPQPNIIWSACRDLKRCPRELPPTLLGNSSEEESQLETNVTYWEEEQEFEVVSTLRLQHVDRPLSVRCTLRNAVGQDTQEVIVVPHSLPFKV
Assay: solid-phase competition, displacement of 125I-PDGF-BB from plate-immobilised PDGFR-β

- IC50: 2500 µM
B1: target cyclic peptide 5 (peptide)
peptide: cyclo(PESVRKKSI[dP])
SMILES: CC[C@H](C)[C@@H]1NC(=O)[C@H](CO)NC(=O)[C@H](CCCCN)NC(=O)[C@H](CCCCN)NC(=O)[C@H](CCCNC(=N)N)NC(=O)[C@H](C(C)C)NC(=O)[C@H](CO)NC(=O)[C@H](CCC(=O)O)NC(=O)[C@@H]2CCCN2C(=O)[C@H]2CCCN2C1=O
notes: also called compound 5

- IC50: 800 µM
B2: target cyclic peptide 17 (peptide)
peptide: cyclo(PWSVRKKSW[dP])
SMILES: CC(C)[C@@H]1NC(=O)[C@H](CO)NC(=O)[C@H](Cc2c[nH]c3ccccc23)NC(=O)[C@@H]2CCCN2C(=O)[C@H]2CCCN2C(=O)[C@H](Cc2c[nH]c3ccccc23)NC(=O)[C@H](CO)NC(=O)[C@H](CCCCN)NC(=O)[C@H](CCCCN)NC(=O)[C@H](CCCNC(=N)N)NC1=O
notes: also called ^LP-W-S-V-R / ^DP-W-S-K-K

- IC50: 500 µM
B3: target cyclic peptide 18 (peptide)
peptide: cyclo(PWKVRKKKW[dP])
SMILES: CC(C)[C@@H]1NC(=O)[C@H](CCCCN)NC(=O)[C@H](Cc2c[nH]c3ccccc23)NC(=O)[C@@H]2CCCN2C(=O)[C@H]2CCCN2C(=O)[C@H](Cc2c[nH]c3ccccc23)NC(=O)[C@H](CCCCN)NC(=O)[C@H](CCCCN)NC(=O)[C@H](CCCCN)NC(=O)[C@H](CCCNC(=N)N)NC1=O
notes: also called ^LP-W-K-V-R / ^DP-W-K-K-K

- IC50: < 2500 µM
B4: target cyclic peptide 19 (peptide)
peptide: cyclo(PAIVRKKPA[dP])
SMILES: CC[C@H](C)[C@@H]1NC(=O)[C@H](C)NC(=O)[C@@H]2CCCN2C(=O)[C@H]2CCCN2C(=O)[C@H](C)NC(=O)[C@@H]2CCCN2C(=O)[C@H](CCCCN)NC(=O)[C@H](CCCCN)NC(=O)[C@H](CCCNC(=N)N)NC(=O)[C@H](C(C)C)NC1=O
notes: also called ^LP-A-I-V-R / ^DP-A-P-K-K

- IC50: 2000 µM
B5: target cyclic peptide 20 (peptide)
peptide: cyclo(PAYVRKKYA[dP])
SMILES: CC(C)[C@@H]1NC(=O)[C@H](Cc2ccc(O)cc2)NC(=O)[C@H](C)NC(=O)[C@@H]2CCCN2C(=O)[C@H]2CCCN2C(=O)[C@H](C)NC(=O)[C@H](Cc2ccc(O)cc2)NC(=O)[C@H](CCCCN)NC(=O)[C@H](CCCCN)NC(=O)[C@H](CCCNC(=N)N)NC1=O
notes: also called ^LP-A-Y-V-R / ^DP-A-Y-K-K

- IC50: < 2500 µM
B6: target cyclic peptide 4 (peptide)
peptide: cyclo(PEAVRKKAI[dP])
SMILES: CC[C@H](C)[C@@H]1NC(=O)[C@H](C)NC(=O)[C@H](CCCCN)NC(=O)[C@H](CCCCN)NC(=O)[C@H](CCCNC(=N)N)NC(=O)[C@H](C(C)C)NC(=O)[C@H](C)NC(=O)[C@H](CCC(=O)O)NC(=O)[C@@H]2CCCN2C(=O)[C@H]2CCCN2C1=O
notes: also called compound 4

- IC50: 2200 µM
B7: target cyclic peptide 1 (peptide)
peptide: cyclo(PEIVRKKPI[dP])
SMILES: CC[C@H](C)[C@@H]1NC(=O)[C@H](CCC(=O)O)NC(=O)[C@@H]2CCCN2C(=O)[C@H]2CCCN2C(=O)[C@H]([C@@H](C)CC)NC(=O)[C@@H]2CCCN2C(=O)[C@H](CCCCN)NC(=O)[C@H](CCCCN)NC(=O)[C@H](CCCNC(=N)N)NC(=O)[C@H](C(C)C)NC1=O
notes: mimic of PDGF loop III on a diproline template; also called compound 1

- IC50: 2000 µM
B8: target cyclic peptide 2 (peptide)
peptide: cyclo(PEYVRKKYI[dP])
SMILES: CC[C@H](C)[C@@H]1NC(=O)[C@H](Cc2ccc(O)cc2)NC(=O)[C@H](CCCCN)NC(=O)[C@H](CCCCN)NC(=O)[C@H](CCCNC(=N)N)NC(=O)[C@H](C(C)C)NC(=O)[C@H](Cc2ccc(O)cc2)NC(=O)[C@H](CCC(=O)O)NC(=O)[C@@H]2CCCN2C(=O)[C@H]2CCCN2C1=O
notes: also called compound 2

- IC50: 2000 µM
B9: target cyclic peptide 10 (peptide)
peptide: cyclo(PYAVRKKAY[dP])
SMILES: CC(C)[C@@H]1NC(=O)[C@H](C)NC(=O)[C@H](Cc2ccc(O)cc2)NC(=O)[C@@H]2CCCN2C(=O)[C@H]2CCCN2C(=O)[C@H](Cc2ccc(O)cc2)NC(=O)[C@H](C)NC(=O)[C@H](CCCCN)NC(=O)[C@H](CCCCN)NC(=O)[C@H](CCCNC(=N)N)NC1=O
notes: also called ^LP-Y-A-V-R / ^DP-Y-A-K-K

- IC50: 170 µM
B10: target cyclic peptide 14 (peptide)
peptide: cyclo(PWYVRKKYW[dP])
SMILES: CC(C)[C@@H]1NC(=O)[C@H](Cc2ccc(O)cc2)NC(=O)[C@H](Cc2c[nH]c3ccccc23)NC(=O)[C@@H]2CCCN2C(=O)[C@H]2CCCN2C(=O)[C@H](Cc2c[nH]c3ccccc23)NC(=O)[C@H](Cc2ccc(O)cc2)NC(=O)[C@H](CCCCN)NC(=O)[C@H](CCCCN)NC(=O)[C@H](CCCNC(=N)N)NC1=O
notes: also called ^LP-W-Y-V-R / ^DP-W-Y-K-K

- IC50: 1500 µM
B11: target cyclic peptide 7 (peptide)
peptide: cyclo(PYIVRKKPY[dP])
SMILES: CC[C@H](C)[C@@H]1NC(=O)[C@H](Cc2ccc(O)cc2)NC(=O)[C@@H]2CCCN2C(=O)[C@H]2CCCN2C(=O)[C@H](Cc2ccc(O)cc2)NC(=O)[C@@H]2CCCN2C(=O)[C@H](CCCCN)NC(=O)[C@H](CCCCN)NC(=O)[C@H](CCCNC(=N)N)NC(=O)[C@H](C(C)C)NC1=O
notes: also called ^LP-Y-I-V-R / ^DP-Y-P-K-K

- IC50: < 2500 µM
B12: target cyclic peptide 22 (peptide)
peptide: cyclo(PAAVRKKAA[dP])
SMILES: CC(C)[C@@H]1NC(=O)[C@H](C)NC(=O)[C@H](C)NC(=O)[C@@H]2CCCN2C(=O)[C@H]2CCCN2C(=O)[C@H](C)NC(=O)[C@H](C)NC(=O)[C@H](CCCCN)NC(=O)[C@H](CCCCN)NC(=O)[C@H](CCCNC(=N)N)NC1=O
notes: also called ^LP-A-A-V-R / ^DP-A-A-K-K

- IC50: 2000 µM
B13: target cyclic peptide 21 (peptide)
peptide: cyclo(PAWVRKKWA[dP])
SMILES: CC(C)[C@@H]1NC(=O)[C@H](Cc2c[nH]c3ccccc23)NC(=O)[C@H](C)NC(=O)[C@@H]2CCCN2C(=O)[C@H]2CCCN2C(=O)[C@H](C)NC(=O)[C@H](Cc2c[nH]c3ccccc23)NC(=O)[C@H](CCCCN)NC(=O)[C@H](CCCCN)NC(=O)[C@H](CCCNC(=N)N)NC1=O
notes: also called ^LP-A-W-V-R / ^DP-A-W-K-K

- IC50: 800 µM
B14: target cyclic peptide 16 (peptide)
peptide: cyclo(PWAVRKKAW[dP])
SMILES: CC(C)[C@@H]1NC(=O)[C@H](C)NC(=O)[C@H](Cc2c[nH]c3ccccc23)NC(=O)[C@@H]2CCCN2C(=O)[C@H]2CCCN2C(=O)[C@H](Cc2c[nH]c3ccccc23)NC(=O)[C@H](C)NC(=O)[C@H](CCCCN)NC(=O)[C@H](CCCCN)NC(=O)[C@H](CCCNC(=N)N)NC1=O
notes: also called ^LP-W-A-V-R / ^DP-W-A-K-K

- IC50: 2500 µM
B15: target cyclic peptide 23 (peptide)
peptide: cyclo(PASVRKKSA[dP])
SMILES: CC(C)[C@@H]1NC(=O)[C@H](CO)NC(=O)[C@H](C)NC(=O)[C@@H]2CCCN2C(=O)[C@H]2CCCN2C(=O)[C@H](C)NC(=O)[C@H](CO)NC(=O)[C@H](CCCCN)NC(=O)[C@H](CCCCN)NC(=O)[C@H](CCCNC(=N)N)NC1=O
notes: also called ^LP-A-S-V-R / ^DP-A-S-K-K

- IC50: 500 µM
Binder: cyclo(PYWVRKKWY[dP]) (also called ^LP-Y-W-V-R / ^DP-Y-W-K-K) [target cyclic peptide 9]

- IC50: 800 µM
B16: target cyclic peptide 8 (peptide)
peptide: cyclo(PYYVRKKYY[dP])
SMILES: CC(C)[C@@H]1NC(=O)[C@H](Cc2ccc(O)cc2)NC(=O)[C@H](Cc2ccc(O)cc2)NC(=O)[C@@H]2CCCN2C(=O)[C@H]2CCCN2C(=O)[C@H](Cc2ccc(O)cc2)NC(=O)[C@H](Cc2ccc(O)cc2)NC(=O)[C@H](CCCCN)NC(=O)[C@H](CCCCN)NC(=O)[C@H](CCCNC(=N)N)NC1=O
notes: also called ^LP-Y-Y-V-R / ^DP-Y-Y-K-K

- IC50: 2500 µM
B17: target cyclic peptide 24 (peptide)
peptide: cyclo(PAKVRKKKA[dP])
SMILES: CC(C)[C@@H]1NC(=O)[C@H](CCCCN)NC(=O)[C@H](C)NC(=O)[C@@H]2CCCN2C(=O)[C@H]2CCCN2C(=O)[C@H](C)NC(=O)[C@H](CCCCN)NC(=O)[C@H](CCCCN)NC(=O)[C@H](CCCCN)NC(=O)[C@H](CCCNC(=N)N)NC1=O
notes: also called ^LP-A-K-V-R / ^DP-A-K-K-K

- IC50: 2000 µM
B18: target cyclic peptide 11 (peptide)
peptide: cyclo(PYSVRKKSY[dP])
SMILES: CC(C)[C@@H]1NC(=O)[C@H](CO)NC(=O)[C@H](Cc2ccc(O)cc2)NC(=O)[C@@H]2CCCN2C(=O)[C@H]2CCCN2C(=O)[C@H](Cc2ccc(O)cc2)NC(=O)[C@H](CO)NC(=O)[C@H](CCCCN)NC(=O)[C@H](CCCCN)NC(=O)[C@H](CCCNC(=N)N)NC1=O
notes: also called ^LP-Y-S-V-R / ^DP-Y-S-K-K

- IC50: 1500 µM
B19: target cyclic peptide 3 (peptide)
peptide: cyclo(PEWVRKKWI[dP])
SMILES: CC[C@H](C)[C@@H]1NC(=O)[C@H](Cc2c[nH]c3ccccc23)NC(=O)[C@H](CCCCN)NC(=O)[C@H](CCCCN)NC(=O)[C@H](CCCNC(=N)N)NC(=O)[C@H](C(C)C)NC(=O)[C@H](Cc2c[nH]c3ccccc23)NC(=O)[C@H](CCC(=O)O)NC(=O)[C@@H]2CCCN2C(=O)[C@H]2CCCN2C1=O
notes: also called compound 3

- IC50: 1500 µM
B20: target cyclic peptide 12 (peptide)
peptide: cyclo(PYKVRKKKY[dP])
SMILES: CC(C)[C@@H]1NC(=O)[C@H](CCCCN)NC(=O)[C@H](Cc2ccc(O)cc2)NC(=O)[C@@H]2CCCN2C(=O)[C@H]2CCCN2C(=O)[C@H](Cc2ccc(O)cc2)NC(=O)[C@H](CCCCN)NC(=O)[C@H](CCCCN)NC(=O)[C@H](CCCCN)NC(=O)[C@H](CCCNC(=N)N)NC1=O
notes: also called ^LP-Y-K-V-R / ^DP-Y-K-K-K

- IC50: 260 µM
B21: target cyclic peptide 13 (peptide)
peptide: cyclo(PWIVRKKPW[dP])
SMILES: CC[C@H](C)[C@@H]1NC(=O)[C@H](Cc2c[nH]c3ccccc23)NC(=O)[C@@H]2CCCN2C(=O)[C@H]2CCCN2C(=O)[C@H](Cc2c[nH]c3ccccc23)NC(=O)[C@@H]2CCCN2C(=O)[C@H](CCCCN)NC(=O)[C@H](CCCCN)NC(=O)[C@H](CCCNC(=N)N)NC(=O)[C@H](C(C)C)NC1=O
notes: also called ^LP-W-I-V-R / ^DP-W-P-K-K
